Assay results as given in patent US20260308269 (published 2026).
Residue numbers refer to the chain shown, from its start.

T1: human TfR apical domain (human)
T1 chain: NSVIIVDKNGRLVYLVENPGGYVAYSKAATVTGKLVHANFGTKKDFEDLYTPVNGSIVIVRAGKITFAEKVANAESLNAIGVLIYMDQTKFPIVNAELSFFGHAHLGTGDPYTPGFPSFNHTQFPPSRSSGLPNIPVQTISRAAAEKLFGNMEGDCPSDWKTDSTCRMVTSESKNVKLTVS

T2: human CD98hc (human)
T2 chain: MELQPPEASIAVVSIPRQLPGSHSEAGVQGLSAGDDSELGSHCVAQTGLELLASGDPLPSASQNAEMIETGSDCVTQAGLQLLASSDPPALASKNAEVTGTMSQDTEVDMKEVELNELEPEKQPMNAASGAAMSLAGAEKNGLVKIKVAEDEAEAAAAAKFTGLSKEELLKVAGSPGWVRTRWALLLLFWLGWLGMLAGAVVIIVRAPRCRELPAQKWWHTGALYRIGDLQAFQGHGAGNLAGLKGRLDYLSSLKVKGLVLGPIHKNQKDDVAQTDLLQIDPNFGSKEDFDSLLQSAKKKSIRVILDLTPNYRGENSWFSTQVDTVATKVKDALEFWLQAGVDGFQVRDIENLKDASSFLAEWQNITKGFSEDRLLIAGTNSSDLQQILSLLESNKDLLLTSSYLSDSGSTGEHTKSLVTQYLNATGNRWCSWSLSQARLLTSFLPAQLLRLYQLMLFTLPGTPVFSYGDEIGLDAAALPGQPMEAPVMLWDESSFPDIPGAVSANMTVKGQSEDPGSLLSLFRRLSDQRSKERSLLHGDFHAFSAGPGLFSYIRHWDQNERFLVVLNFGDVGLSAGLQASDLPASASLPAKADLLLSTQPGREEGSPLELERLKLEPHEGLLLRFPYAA

B1: CH3C.35.23.2 (protein)
chain: PCPAPELLGGPSVFLFPPKPKDTLMISRTPEVTCVVVDVSHEDPEVKFNWYVDGVEVHNAKTKPREEQYNSTYRVVSVLTVLHQDWLNGKEYKCKVSNKALPAPIEKTISKAKGQPREPQVYTLPPSRDELTKNQVSLWCLVKGFYPSDIAVEWESYGTEWANYKTTPPVLDSDGSFFLYSKLTVTKEEWQQGFVFSCSVMHEALHNHYTQKSLSLSPGK
B2: TV35.d1.9 (protein)
chain: B1 chain with L7A, L8A, P102G, A162T, E188S
B3: TV35.d1.10 (protein)
chain: B1 chain with L7A, L8A, P102G, A162V, E188S
B4: CH3C.35.23.4 (protein)
chain: B1 chain with A162S, T186S
B5: 42.8.143 (protein)
chain: APELLGGPSVFLFPPKPKDTLMISRTPEVTCVVVDVSHEDPEVKFNWYVDGVEVHNAKTKPREEQYNSTYRVVSVLTVLHQDWLNGKEYKCKVSNKALPAPIEKTISKAKGQPREPQVYTLPPSRDELTKNQVSLTCLVKGFYPSDIAVEWFYGDSKLTNYKTTPPVLDSDGSFFLYSKLTVDKSRWQQGNLFACEVMHEALHNHYTYKLLSLSPGK
B6: 6.5.11.5.42.2 (TV42.2) (protein)
chain: B5 chain with Y153S, G154D, D155G, L158E
B7: 42.2.3-1H (protein)
chain: B5 chain with D155N, S156A, L158E
B8: 42.8.17 (protein)
chain: B5 chain with Y153S, D155A, S156Q
B9: 6.5.11.5.42.1 (protein)
chain: B5 chain with Y153S, D155G, S156A, L158E
B10: 42.8.15 (protein)
chain: B5 chain with Y153S, D155A, S156Q, L158E, T159S
B11: 42.2.19 (protein)
chain: B5 chain with G154D, Q189P, G190R, N191G, S212G, L213E
B12: 42.8.80 (protein)
chain: B5 chain with Y153S, G154E, D155G, L158E
B13: 42.8.196 (protein)
chain: B5 chain with G154E, D155A, S156Q, T159N
B14: LLB2.10.8.10.3 (protein)
chain: APELLGGPSVFLFPPKPKDTLMISRTPEVTCVVVDVSHEDPEVKFNWYVDGVEVHNAKTKPREEQYNSTYRVVSVLTVLHQDWLNGKEYKCKVSNKALPAPIEKTISKAKGQPREPQVYTLPPSRDELTKNQVSLTCLVKGFYPSDIAVLWNSRFVLENNYKTTPPVLDSDGSFFLYSKLTVDKSRWQQGEIFACNVYHEALHNHYTFKNLRLSPGK
B15: LLB2-10-8-d12 (protein)
chain: B14 chain with R154H, F155Y, V156E, E191N, I192V, R212A
B16: LLB2-10-8.d28 (protein)
chain: B14 chain with N152S, F155Y, E191N, I192V, R212A
B17: LLB2-37 (protein)
chain: B14 chain with R154Q, V156H, E191N, R212L
B18: LLB2.10.8.14.3 (protein)
chain: B14 chain with Y206R
B19: LLB2-10-8 (protein)
chain: B14 chain with R212A

Molecular target: T1, human TfR apical domain
Assay: SPR

| Binder | Kd |
| --- | --- |
| B1 | 100 nM |
| B2 | 8000 nM |
| B3 | 2500 nM |
| B4 | 620 nM |
| B5 | 450 nM |
| B6 | 650 nM |

Molecular target: T1, human TfR apical domain
Assay: SPR
Remark: another data set of the same source

| Binder | Kd |
| --- | --- |
| B7 | 220 nM |
| B8 | 10400 nM |
| B9 | 840 nM |
| B10 | 5960 nM |
| B11 | 80 nM |
| B12 | 2380 nM |
| B6 | 650 nM |
| B13 | 924 nM |

Molecular target: T2, human CD98hc
Assay: SPR

| Binder | Kd |
| --- | --- |
| B14 | 43 nM |
| B15 | 2100 nM |
| B16 | 4200 nM |
| B17 | 610 nM |
| B18 | 20 nM |
| B19 | 170 nM |

Molecular target: T1, human TfR apical domain
Assay: SPR
Remark: another data set of the same source

| Binder | Kd |
| --- | --- |
| B2 | 8.4 µM |
| B3 | 2.5 µM |
